Key:
Assay in all cases: cell-based or functional assay
[1] = molecular target: T1, human CD40 on primary human B cells or human monocyte-derived dendritic cells (human, UniProt P25942 21-277)
[2] = molecular target: T1, human CD40 on primary human B cells or …; remark: listed apart in the source
[3] = molecular target: T1, human CD40 on primary human B cells or …; remark: listed apart in the source
[4] = molecular target: T1, human CD40 on primary human B cells or …; remark: listed apart in the source

T1 sequence (P25942 21-277 H80K/K81H limits assumed): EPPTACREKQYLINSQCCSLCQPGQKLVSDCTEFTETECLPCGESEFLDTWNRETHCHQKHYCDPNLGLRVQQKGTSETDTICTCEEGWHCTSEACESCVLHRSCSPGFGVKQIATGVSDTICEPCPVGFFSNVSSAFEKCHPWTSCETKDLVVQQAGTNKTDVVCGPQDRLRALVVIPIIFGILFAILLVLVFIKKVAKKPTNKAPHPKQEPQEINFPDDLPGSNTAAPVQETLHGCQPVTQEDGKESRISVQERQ

Row | Binder | Efficacy [MFI at highest dose], MFI CD86, human B cells with FAP-CHO cells, w HSA [1] | Efficacy [MFI at highest dose], MFI CD86, human B cells with FAP-CHO cells, w/o HSA [1] | Efficacy at highest dose, % CD86, human B cells with FAP-CHO cells, w HSA [1] | Efficacy at highest dose, % CD86, human B cells with FAP-CHO cells, w/o HSA [1] | EC50, % CD86, human B cells with FAP-CHO cells, w HSA [2] | EC50, % CD86, human B cells with FAP-CHO cells, w/o HSA [2] | EC50, MFI CD86, human B cells with FAP-CHO cells, w HSA [2] | EC50, MFI CD86, human B cells with FAP-CHO cells, w/o HSA [2] | Efficacy [MFI at highest dose], MFI CD86, human B cells with WT-CHO cells (no FAP), w HSA [3] | Efficacy [MFI at highest dose], MFI CD86, human B cells with WT-CHO cells (no FAP), w/o HSA [3] | Efficacy at highest dose, % CD86, human B cells with WT-CHO cells (no FAP), w HSA [3] | Efficacy at highest dose, % CD86, human B cells with WT-CHO cells (no FAP), w/o HSA [3] | fold increase of efficacy against SMA014, CD86 upregulation on human B cells with FAP expressing CHO cells [4] | fold increase of potency against SMA014, CD86 upregulation on human B cells with FAP expressing CHO cells [4]
1 | SMA099 (designed binder) MRGSHHHHHHGSDLGKKLLEAARAGQDDEVRELLKAGADVNAKDYFSHTPLHLAARNGHLKIVEVLLKAGADVNAKDFAGKTPLHLAAADGHLEIVEVLLKAGADVNAQDIFGKTPADIAADAGHEDIAEVLQKAAGSPTPTPTTPTPTPTTPTPTPTGSDLGEKLLVAALYGQDDEVRELLKAGADVNAKDQWGLTPLHKAALQGHLEIVEVLLKAGADVNAKDERGHTPLHWAARFGHLEIVEVLLKAGADVNAQDQKGYTPADLAALWGHEDIAEVLQKAAGSPTPTPTTPTPTPTTPTPTPTGSDLGKKLLQAARAGQLDEVRELLKAGADVNAKDTWGFTPLHIAAESGHLEIVEVLLKAGADVNAKDVQGRTPLHIAAHSGHLEIVEVLLKAGADVNAKDFRGWTPLHLAAWSGHLEIVEILLKAGADVNAQDKSGKTPADLAARAGHQDIAEVLQKAAGSPTPTPTTPTPTPTTPTPTPTGSDLGKKLLQAARAGQLDEVRELLKAGADVNAKDTWGFTPLHIAAESGHLEIVEVLLKAGADVNAKDVQGRTPLHIAAHSGHLEIVEVLLKAGADVNAKDFRGWTPLHLAAWSGHLEIVEILLKAGADVNAQDKSGKTPADLAARAGHQDIAEVLQKAAGSPTPTPTTPTPTPTTPTPTPTGSDLGKKLLEAARAGQDDEVRELLKAGADVNAKDYFSHTPLHLAARNGHLKIVEVLLKAGADVNAKDFAGKTPLHLAAADGHLEIVEVLLKAGADVNAQDIFGKTPADIAADAGHEDIAEVLQKAA | 1720 MFI | 4950 MFI | 71.7% | 84.4% | 7.5 nM | 4.68 nM | 19.4 nM | 18.2 nM | 274 MFI | 289 MFI | 42.5% | 47.4% | – | –
2 | SMA104 (designed binder) MRGSHHHHHHGSDLGEKLLVAALYGQDDEVRELLKAGADVNAKDQWGLTPLHKAALQGHLEIVEVLLKAGADVNAKDERGHTPLHWAARFGHLEIVEVLLKAGADVNAQDQKGYTPADLAALWGHEDIAEVLQKAAGSPTPTPTTPTPTPTTPTPTPTGSDLGKKLLQAARAGQLDEVRELLKAGADVNAKDTWGFTPLHIAAESGHLEIVEVLLKAGADVNAKDVQGRTPLHIAAHSGHLEIVEVLLKAGADVNAKDFRGWTPLHLAAWSGHLEIVEILLKAGADVNAQDKSGKTPADLAARAGHQDIAEVLQKAAGSPTPTPTTPTPTPTTPTPTPTGSDLGKKLLQAARAGQLDEVRELLKAGADVNAKDTWGFTPLHIAAESGHLEIVEVLLKAGADVNAKDVQGRTPLHIAAHSGHLEIVEVLLKAGADVNAKDFRGWTPLHLAAWSGHLEIVEILLKAGADVNAQDKSGKTPADLAARAGHQDIAEVLQKAA | – | 6270 MFI | – | 86.8% | – | 0.23 nM | – | 0.74 nM | – | 252 MFI | – | 46% | 2 fold | 20 fold
3 | SMA091 (designed binder) MRGSHHHHHHGSDLGKKLLEAARAGQDDEVRELLKAGADVNAKDYFSHTPLHLAARNGHLKIVEVLLKAGADVNAKDFAGKTPLHLAAADGHLEIVEVLLKAGADVNAQDIFGKTPADIAADAGHEDIAEVLQKAAGSPTPTPTTPTPTPTTPTPTPTGSDLGEKLLVAALYGQDDEVRELLKAGADVNAKDQWGLTPLHKAALQGHLEIVEVLLKAGADVNAKDERGHTPLHWAARFGHLEIVEVLLKAGADVNAQDQKGYTPADLAALWGHEDIAEVLQKAAGSPTPTPTTPTPTPTTPTPTPTGSDLGKKLLQAARAGQLDEVRELLKAGADVNAKDTWGFTPLHIAAESGHLEIVEVLLKAGADVNAKDVQGRTPLHIAAHSGHLEIVEVLLKAGADVNAKDFRGWTPLHLAAWSGHLEIVEILLKAGADVNAQDKSGKTPADLAARAGHQDIAEVLQKAAGSPTPTPTTPTPTPTTPTPTPTGSDLGKKLLQAARAGQLDEVRELLKAGADVNAKDTWGFTPLHIAAESGHLEIVEVLLKAGADVNAKDVQGRTPLHIAAHSGHLEIVEVLLKAGADVNAKDFRGWTPLHLAAWSGHLEIVEILLKAGADVNAQDKSGKTPADLAARAGHQDIAEVLQKAA | 2980 MFI | 6230 MFI | 75.6% | 78.2% | 2.98 nM | 0.76 nM | 8.05 nM | 3.93 nM | 296 MFI | 290 MFI | 43.1% | 47.8% | – | –
4 | SMA087 (designed binder) MRGSHHHHHHGSDLGKKLLEAARAGQDDEVRELLKAGADVNAKDYFSHTPLHLAARNGHLKIVEVLLKAGADVNAKDFAGKTPLHLAAADGHLEIVEVLLKAGADVNAQDIFGKTPADIAADAGHEDIAEVLQKAAGSPTPTPTTPTPTPTTPTPTPTGSDLGEKLLVAALYGQDDEVRELLKAGADVNAKDQWGLTPLHKAALQGHLEIVEVLLKAGADVNAKDERGHTPLHWAARFGHLEIVEVLLKAGADVNAQDQKGYTPADLAALWGHEDIAEVLQKAAGSPTPTPTTPTPTPTTPTPTPTGSDLGKKLLQAARAGQLDEVRELLKAGADVNAKDTWGFTPLHIAAESGHLEIVEVLLKAGADVNAKDVQGRTPLHIAAHSGHLEIVEVLLKAGADVNAKDFRGWTPLHLAAWSGHLEIVEILLKAGADVNAQDKSGKTPADLAARAGHQDIAEVLQKAA | 799 MFI | 1640 MFI | 27% | 43.4% | 72.3 nM | 11.4 nM | 52 nM | 28.9 nM | 299 MFI | 291 MFI | 13.7% | 12.5% | – | –
5 | SMA105 (designed binder) MRGSHHHHHHGSDLGEKLLVAALYGQDDEVRELLKAGADVNAKDQWGLTPLHKAALQGHLEIVEVLLKAGADVNAKDERGHTPLHWAARFGHLEIVEVLLKAGADVNAQDQKGYTPADLAALWGHEDIAEVLQKAAGSPTPTPTTPTPTPTTPTPTPTGSDLGKKLLQAARAGQLDEVRELLKAGADVNAKDTWGFTPLHIAAESGHLEIVEVLLKAGADVNAKDVQGRTPLHIAAHSGHLEIVEVLLKAGADVNAKDFRGWTPLHLAAWSGHLEIVEILLKAGADVNAQDKSGKTPADLAARAGHQDIAEVLQKAAGSPTPTPTTPTPTPTTPTPTPTGSDLGKKLLQAARAGQLDEVRELLKAGADVNAKDTWGFTPLHIAAESGHLEIVEVLLKAGADVNAKDVQGRTPLHIAAHSGHLEIVEVLLKAGADVNAKDFRGWTPLHLAAWSGHLEIVEILLKAGADVNAQDKSGKTPADLAARAGHQDIAEVLQKAAGSPTPTPTTPTPTPTTPTPTPTGSDLGKKLLQAARAGQLDEVRELLKAGADVNAKDTWGFTPLHIAAESGHLEIVEVLLKAGADVNAKDVQGRTPLHIAAHSGHLEIVEVLLKAGADVNAKDFRGWTPLHLAAWSGHLEIVEILLKAGADVNAQDKSGKTPADLAARAGHQDIAEVLQKAA | – | 5560 MFI | – | 87.2% | – | 0.11 nM | – | 0.33 nM | – | 672 MFI | – | 69.2% | – | –
6 | AS579 (designed binder) MRGSHHHHHHGSDLGKKLLEAARAGQDDEVRELLKAGADVNAKDYFSHTPLHLAARNGHLKIVEVLLKAGADVNAKDFAGKTPLHLAAADGHLEIVEVLLKAGADVNAQDIFGKTPADIAADAGHEDIAEVLQKAAGSPTPTPTTPTPTPTTPTPTPTGSDLGKKLLEAARAGQDDEVRELLKAGADVNAKDYFSHTPLHLAARNGHLKIVEVLLKAGADVNAKDFAGKTPLHLAAADGHLEIVEVLLKAGADVNAQDIFGKTPADIAADAGHEDIAEVLQKAAGSPTPTPTTPTPTPTTPTPTPTGSDLGEKLLVAALYGQDDEVRELLKAGADVNAKDQWGLTPLHKAALQGHLEIVEVLLKAGADVNAKDERGHTPLHWAARFGHLEIVEVLLKAGADVNAQDQKGYTPADLAALWGHEDIAEVLQKAAGSPTPTPTTPTPTPTTPTPTPTGSDLGKKLLQAARAGQLDEVRELLKAGADVNAKDTWGFTPLHIAAESGHLEIVEVLLKAGADVNAKDVQGRTPLHIAAHSGHLEIVEVLLKAGADVNAKDFRGWTPLHLAAWSGHLEIVEILLKAGADVNAQDKSGKTPADLAARAGHQDIAEVLQKAAGSPTPTPTTPTPTPTTPTPTPTGSDLGKKLLQAARAGQLDEVRELLKAGADVNAKDTWGFTPLHIAAESGHLEIVEVLLKAGADVNAKDVQGRTPLHIAAHSGHLEIVEVLLKAGADVNAKDFRGWTPLHLAAWSGHLEIVEILLKAGADVNAQDKSGKTPADLAARAGHQDIAEVLQKAA | 1780 MFI | 4860 MFI | 71.9% | 83% | 10.2 nM | 2.27 nM | 23.1 nM | 10 nM | 242 MFI | 252 MFI | 40.1% | 42% | – | –
